Reference: paper PMC6632115

Target: T1, colicin E3 (Escherichia coli) (UniProt P00646)
T1 sequence: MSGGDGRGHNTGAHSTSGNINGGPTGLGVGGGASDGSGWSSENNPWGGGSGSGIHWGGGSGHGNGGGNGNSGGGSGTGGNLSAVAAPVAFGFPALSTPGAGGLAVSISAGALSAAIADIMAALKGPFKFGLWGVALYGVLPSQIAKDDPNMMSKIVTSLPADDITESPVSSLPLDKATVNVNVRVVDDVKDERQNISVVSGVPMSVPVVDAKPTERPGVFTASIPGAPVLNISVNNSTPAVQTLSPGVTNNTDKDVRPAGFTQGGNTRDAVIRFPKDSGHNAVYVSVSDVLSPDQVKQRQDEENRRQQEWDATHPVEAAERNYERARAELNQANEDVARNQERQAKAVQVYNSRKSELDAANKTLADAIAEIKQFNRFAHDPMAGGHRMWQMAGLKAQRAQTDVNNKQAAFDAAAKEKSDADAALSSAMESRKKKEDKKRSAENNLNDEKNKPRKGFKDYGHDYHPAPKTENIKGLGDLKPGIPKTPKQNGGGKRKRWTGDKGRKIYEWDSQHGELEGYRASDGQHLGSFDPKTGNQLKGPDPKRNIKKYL

B1: E3 immunity protein, co-expressed with colicin E3 in CFPS (natural protein)
chain: MGLKLDLTWFDKSTEDFKGEEYSKDFGDDGSVMESLGVPFKDNVNNGCFDVIAEWVPLLQPYFNHQIDISDNEYFVSFDYRDGDW
Q: For B1, which effective multiplicity m = -ln(S/S0) of cell killing of K361 indicator cells by 250 ng/mL colicin E3 co-expressed with the immunity protein is on record?
A: 13.5
